One molecule from patent US20240180969A1 (published 2024) can be followed below.

The target in this assay is T1, peptide on HLA-A*11:01 (human).
T1 peptide: VVVGAVGVGK
As to the kind of experiment: activation reporter or marker. The protocol:
Jurkat NFAT-Luciferase effector cells (JNL) cells were transfected on day 1 with TCR or CAR constructs using standard protocols for the Neon™ transfection system (ThermoFisher MPK5000). T2 HLA-A*11 target cells were loaded with peptide […] (SEQ ID NO: 110). Peptides were resuspended in DMSO, and serially-diluted 20 times, 3× per dilution. Serially diluted peptide solutions were added to T2 HLA-A*11 cells resuspended in peptide-loading media (RPMI 1640+1% BSA+1×P/S). This yielded peptide-loaded T2 HLA-A*11 cells at approximately ˜0.67E6/mL, with peptide concentrations ranging from ˜10 fM to 100 μM, including a control at 0 μM. Peptide-loaded T2 HLA-A*11 cells were incubated overnight at 37° C. in 384-well plates, plated at 10,000 cells per well (Corning 3570). On day 2, transfected JNL cells (10,000 cells/well) were added to the peptide-loaded T2 HLA-A*11 cells to a final volume of 30 μL. After a 6-hour incubation at 37° C., the One-Step™ Luciferase assay system (Firefly luciferase, BPS Bioscience, 60690) was used to determine luminescence intensity on a Tecan Infinite® M1000.

B1: Positive Control TCR (TRAV3-3*01/TRBV4*01) (TCR, V domains shown)
Valpha: GEQVEQRPPHLSVREGDSAVITCTYTDPNSYYFFWYKQEPGASLQLLMKVFSSTEINEGQGFTVLLNKKDKRLSLNLTAAHPGDSAAYFCAVSGGTNSAGNKLTFGIGTRVLVRP
Vbeta: ETAVFQTPNYHVTQVGNEVSFNCKQTLGHDTMYWYKQDSKKLLKIMFSYNNKQLIVNETVPRRFSPQSSDKAHLNLRIKSVEPEDSAVYLCASSRDWGPAEQFFGPGTRLTVL
For B1, the binding result is “recognises”.
